Starred links: 1 amine or outer side, 2 acyl side, 3 side chain; linkers in the order of their positions; H or OH if unused. Non-standard residues stand in square brackets, D forms with d. Groups on a side chain read outwards from the residue. No end group written: not given here. *: point of attachment. N_Butyl_Phe = CCCCN([C@@H](Cc1ccccc1)C(=O)[*:2])[*:1]; C18 diacid = O=C(O)CCCCCCCCCCCCCCCCC(=O)*; Dip = N[C@H](C(=O)O)C(c1ccccc1)c1ccccc1; γGlu = O=C(O)[C@H](CCC(=O)[*:2])N[*:1]; Palmitoyl = CCCCCCCCCCCCCCCC(=O)*; β3hF = N[C@H](CC(=O)O)Cc1ccccc1; Isovaleryl = CC(C)CC(=O)*; AEEA = NCCOCCOCC(=O)O; Ahx = NCCCCCC(=O)O; NHPr = CCCN*
B1: Isovaleric Acid-E-T-H-[Dpa]-P-A-I-[Lys(Ahx_Palm)]-L-NH2 (peptide)
peptide: Isovaleryl-ETH[Dip]PAIK([Ahx-Palmitoyl])L-NH2
SMILES: CCCCCCCCCCCCCCCC(=O)NCCCCCC(=O)NCCCC[C@H](NC(=O)[C@@H](NC(=O)[C@H](C)NC(=O)[C@@H]1CCCN1C(=O)[C@@H](NC(=O)[C@H](Cc1c[nH]cn1)NC(=O)[C@@H](NC(=O)[C@H](CCC(=O)O)NC(=O)CC(C)C)[C@@H](C)O)C(c1ccccc1)c1ccccc1)[C@@H](C)CC)C(=O)N[C@@H](CC(C)C)C(N)=O
B2: Isovaleric Acid-E-T-H-[Dpa]-P-L-I-[Lys(Ahx_Palm)]-L-NH2 (peptide)
peptide: Isovaleryl-ETH[Dip]PLIK([Ahx-Palmitoyl])L-NH2
SMILES: CCCCCCCCCCCCCCCC(=O)NCCCCCC(=O)NCCCC[C@H](NC(=O)[C@@H](NC(=O)[C@H](CC(C)C)NC(=O)[C@@H]1CCCN1C(=O)[C@@H](NC(=O)[C@H](Cc1c[nH]cn1)NC(=O)[C@@H](NC(=O)[C@H](CCC(=O)O)NC(=O)CC(C)C)[C@@H](C)O)C(c1ccccc1)c1ccccc1)[C@@H](C)CC)C(=O)N[C@@H](CC(C)C)C(N)=O
B3: Isovaleric Acid-L-T-H-[Dpa]-P-L-I-[Lys(Ahx_Palm)]-L-NH2 (peptide)
peptide: Isovaleryl-LTH[Dip]PLIK([Ahx-Palmitoyl])L-NH2
SMILES: CCCCCCCCCCCCCCCC(=O)NCCCCCC(=O)NCCCC[C@H](NC(=O)[C@@H](NC(=O)[C@H](CC(C)C)NC(=O)[C@@H]1CCCN1C(=O)[C@@H](NC(=O)[C@H](Cc1c[nH]cn1)NC(=O)[C@@H](NC(=O)[C@H](CC(C)C)NC(=O)CC(C)C)[C@@H](C)O)C(c1ccccc1)c1ccccc1)[C@@H](C)CC)C(=O)N[C@@H](CC(C)C)C(N)=O
B4: Isovaleric Acid-E-T-H-[Dpa]-P-d[Lys(1PEG2_1PEG2_IsoGlu_C18_Diacid)]-[bhPhe]-NH2 (peptide)
peptide: XETHXPXX
modifications: N-term Isovaleric Acid; Dpa4; d[Lys(1PEG2_1PEG2_IsoGlu_C18_Diacid)]6; bhPhe7; C-term NH2
B5: Isovaleric Acid-E-T-H-[Dpa]-P-[Lys(1PEG2_1PEG2_Ahx_C18_Diacid)]-[bhPhe]-NH2 (peptide)
peptide: XETHXPXX
modifications: N-term Isovaleric Acid; Dpa4; Lys(1PEG2_1PEG2_Ahx_C18_Diacid)6; bhPhe7; C-term NH2
B6: Isovaleric Acid-E-T-H-[Dpa]-P-[Lys(1PEG2_1PEG2_IsoGlu_C18_Diacid)]-N_Ethyl_Phe (peptide)
peptide: XETHXPXX
modifications: N-term Isovaleric Acid; Dpa4; Lys(1PEG2_1PEG2_IsoGlu_C18_Diacid)6; C-term N_Ethyl_Phe
B7: Isovaleric Acid-E-T-H-[Dpa]-P-[Lys(1PEG2_1PEG2_IsoGlu_C18_Diacid)]-N_Butyl_Phe (peptide)
peptide: XETHXPXX
modifications: N-term Isovaleric Acid; Dpa4; Lys(1PEG2_1PEG2_IsoGlu_C18_Diacid)6; C-term N_Butyl_Phe
B8: Isovaleric Acid-[Lys(Ahx_Palm)]-T-H-[Dpa]-P-A-I-[(D)Lys]-[bhPhe]-NH2; 2 (peptide)
peptide: Isovaleryl-K([Ahx-Palmitoyl])TH[Dip]PAI[dK][β3hF]-NH2
SMILES: CCCCCCCCCCCCCCCC(=O)NCCCCCC(=O)NCCCC[C@H](NC(=O)CC(C)C)C(=O)N[C@H](C(=O)N[C@@H](Cc1c[nH]cn1)C(=O)N[C@H](C(=O)N1CCC[C@H]1C(=O)N[C@@H](C)C(=O)N[C@H](C(=O)N[C@H](CCCCN)C(=O)N[C@H](CC(N)=O)Cc1ccccc1)[C@@H](C)CC)C(c1ccccc1)c1ccccc1)[C@@H](C)O
B9: Ac-[Lys(Ahx_Palm)]-T-H-[Dpa]-P-A-I-[(D)Lys]-[bhPhe]-NH2 (peptide)
peptide: Ac-K([Ahx-Palmitoyl])TH[Dip]PAI[dK][β3hF]-NH2
SMILES: CCCCCCCCCCCCCCCC(=O)NCCCCCC(=O)NCCCC[C@H](NC(C)=O)C(=O)N[C@H](C(=O)N[C@@H](Cc1c[nH]cn1)C(=O)N[C@H](C(=O)N1CCC[C@H]1C(=O)N[C@@H](C)C(=O)N[C@H](C(=O)N[C@H](CCCCN)C(=O)N[C@H](CC(N)=O)Cc1ccccc1)[C@@H](C)CC)C(c1ccccc1)c1ccccc1)[C@@H](C)O
B10: Isovaleric Acid-L-T-H-[Dpa]-P-A-I-[Lys(Ahx_Palm)]-L-NH2 (peptide)
peptide: Isovaleryl-LTH[Dip]PAIK([Ahx-Palmitoyl])L-NH2
SMILES: CCCCCCCCCCCCCCCC(=O)NCCCCCC(=O)NCCCC[C@H](NC(=O)[C@@H](NC(=O)[C@H](C)NC(=O)[C@@H]1CCCN1C(=O)[C@@H](NC(=O)[C@H](Cc1c[nH]cn1)NC(=O)[C@@H](NC(=O)[C@H](CC(C)C)NC(=O)CC(C)C)[C@@H](C)O)C(c1ccccc1)c1ccccc1)[C@@H](C)CC)C(=O)N[C@@H](CC(C)C)C(N)=O
B11: Isovaleric Acid-L-T-H-[Dpa]-P-d[Lys(1PEG2_1PEG2_IsoGlu_C18_Diacid)]-[bhPhe]-NH2 (peptide)
peptide: Isovaleryl-LTH[Dip]P[dK]([AEEA-AEEA-γGlu-C18 diacid])[β3hF]-NH2
SMILES: CC(C)CC(=O)N[C@@H](CC(C)C)C(=O)N[C@H](C(=O)N[C@@H](Cc1c[nH]cn1)C(=O)N[C@H](C(=O)N1CCC[C@H]1C(=O)N[C@H](CCCCNC(=O)COCCOCCNC(=O)COCCOCCNC(=O)CC[C@H](NC(=O)CCCCCCCCCCCCCCCCC(=O)O)C(=O)O)C(=O)N[C@H](CC(N)=O)Cc1ccccc1)C(c1ccccc1)c1ccccc1)[C@@H](C)O
B12: Isovaleric Acid-[Lys(Ahx_Palm)]-T-H-[Dpa]-P-A-I-[(D)Lys]-[bhPhe]-NH2; 1 (peptide)
peptide: Isovaleryl-K([Ahx-Palmitoyl])TH[Dip]PAI[dK][β3hF]-NH2
SMILES: CCCCCCCCCCCCCCCC(=O)NCCCCCC(=O)NCCCC[C@H](NC(=O)CC(C)C)C(=O)N[C@H](C(=O)N[C@@H](Cc1c[nH]cn1)C(=O)N[C@H](C(=O)N1CCC[C@H]1C(=O)N[C@@H](C)C(=O)N[C@H](C(=O)N[C@H](CCCCN)C(=O)N[C@H](CC(N)=O)Cc1ccccc1)[C@@H](C)CC)C(c1ccccc1)c1ccccc1)[C@@H](C)O
B13: Isovaleric Acid-L-T-H-[Dpa]-P-A-I-[Lys(Ahx_Palm)]-[bhPhe]-NH2 (peptide)
peptide: Isovaleryl-LTH[Dip]PAIK([Ahx-Palmitoyl])[β3hF]-NH2
SMILES: CCCCCCCCCCCCCCCC(=O)NCCCCCC(=O)NCCCC[C@H](NC(=O)[C@@H](NC(=O)[C@H](C)NC(=O)[C@@H]1CCCN1C(=O)[C@@H](NC(=O)[C@H](Cc1c[nH]cn1)NC(=O)[C@@H](NC(=O)[C@H](CC(C)C)NC(=O)CC(C)C)[C@@H](C)O)C(c1ccccc1)c1ccccc1)[C@@H](C)CC)C(=O)N[C@H](CC(N)=O)Cc1ccccc1
B14: Isovaleric Acid-E-T-H-[Dpa]-P-[Lys(1PEG2_1PEG2_IsoGlu_C18_Diacid)]-Propyl_Amine (peptide)
peptide: XETHXPXX
modifications: N-term Isovaleric Acid; Dpa4; Lys(1PEG2_1PEG2_IsoGlu_C18_Diacid)6; C-term Propyl_Amine
B15: Isovaleric Acid-L-T-H-[Dpa]-[Lys(1PEG2_1PEG2_IsoGlu_C18_Diacid)]-Propyl_Amine (peptide)
peptide: Isovaleryl-LTH[Dip]K([AEEA-AEEA-γGlu-C18 diacid])-NHPr
SMILES: CCCNC(=O)[C@H](CCCCNC(=O)COCCOCCNC(=O)COCCOCCNC(=O)CC[C@H](NC(=O)CCCCCCCCCCCCCCCCC(=O)O)C(=O)O)NC(=O)[C@@H](NC(=O)[C@H](Cc1c[nH]cn1)NC(=O)[C@@H](NC(=O)[C@H](CC(C)C)NC(=O)CC(C)C)[C@@H](C)O)C(c1ccccc1)c1ccccc1
B16: Isovaleric Acid-E-T-H-[Dpa]-P-d[Lys(1PEG2_1PEG2_Ahx_C18_Diacid)]-[bhPhe]-NH2 (peptide)
peptide: XETHXPXX
modifications: not fully specified; N-term Isovaleric Acid; Dpa4; d[Lys(1PEG2_1PEG2_Ahx_C18_Diacid)]6; bhPhe7; C-term NH2
B17: Isovaleric Acid-L-T-H-[Dpa]-P-[Lys(1PEG2_1PEG2_IsoGlu_C18_Diacid)]-[bhPhe]-NH2 (peptide)
peptide: Isovaleryl-LTH[Dip]PK([AEEA-AEEA-γGlu-C18 diacid])[β3hF]-NH2
SMILES: CC(C)CC(=O)N[C@@H](CC(C)C)C(=O)N[C@H](C(=O)N[C@@H](Cc1c[nH]cn1)C(=O)N[C@H](C(=O)N1CCC[C@H]1C(=O)N[C@@H](CCCCNC(=O)COCCOCCNC(=O)COCCOCCNC(=O)CC[C@H](NC(=O)CCCCCCCCCCCCCCCCC(=O)O)C(=O)O)C(=O)N[C@H](CC(N)=O)Cc1ccccc1)C(c1ccccc1)c1ccccc1)[C@@H](C)O
B18: Isovaleric Acid-E-T-H-[Dpa]-P-[Lys(1PEG2_1PEG2_IsoGlu_C18_Diacid)]-[bhPhe]-NH2 (peptide)
peptide: XETHXPXX
modifications: N-term Isovaleric Acid; Dpa4; Lys(1PEG2_1PEG2_IsoGlu_C18_Diacid)6; bhPhe7; C-term NH2
B19: Isovaleric Acid-L-T-H-[Dpa]-P-L-I-[Lys(Ahx_Palm)]-[bhPhe]-NH2 (peptide)
peptide: Isovaleryl-LTH[Dip]PLIK([Ahx-Palmitoyl])[β3hF]-NH2
SMILES: CCCCCCCCCCCCCCCC(=O)NCCCCCC(=O)NCCCC[C@H](NC(=O)[C@@H](NC(=O)[C@H](CC(C)C)NC(=O)[C@@H]1CCCN1C(=O)[C@@H](NC(=O)[C@H](Cc1c[nH]cn1)NC(=O)[C@@H](NC(=O)[C@H](CC(C)C)NC(=O)CC(C)C)[C@@H](C)O)C(c1ccccc1)c1ccccc1)[C@@H](C)CC)C(=O)N[C@H](CC(N)=O)Cc1ccccc1

Each binder was assayed against T1, human ferroportin (SLC40A1) fused in frame with GFP, stably expressed in HEK293 cells (human, UniProt Q9NP59 1-571) (assay: cell-based or functional assay).
T1 sequence (looked up): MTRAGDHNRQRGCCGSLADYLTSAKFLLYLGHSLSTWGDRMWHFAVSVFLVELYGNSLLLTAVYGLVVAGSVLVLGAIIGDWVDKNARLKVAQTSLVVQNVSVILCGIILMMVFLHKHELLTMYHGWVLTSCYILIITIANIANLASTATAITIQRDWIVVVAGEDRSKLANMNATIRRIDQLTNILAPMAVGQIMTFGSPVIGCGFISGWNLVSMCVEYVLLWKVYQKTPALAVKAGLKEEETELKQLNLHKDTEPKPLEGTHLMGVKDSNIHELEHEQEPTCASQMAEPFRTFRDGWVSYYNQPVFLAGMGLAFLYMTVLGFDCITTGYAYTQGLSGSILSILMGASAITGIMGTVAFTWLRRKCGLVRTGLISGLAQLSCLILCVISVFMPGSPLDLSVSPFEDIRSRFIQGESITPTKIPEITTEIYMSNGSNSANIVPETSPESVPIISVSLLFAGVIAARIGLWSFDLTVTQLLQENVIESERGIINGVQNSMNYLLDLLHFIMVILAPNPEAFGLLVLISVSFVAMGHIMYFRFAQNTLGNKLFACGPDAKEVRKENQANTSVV

Binder	FPN IC50 [nM]
B1	82
B2	37.4
B3	342
B4	1490
B5	367
B6	408
B7	448
B8	654
B9	> 3000
Isovaleryl-LTH[Dip]PK([Ahx-Palmitoyl])[N_Ethyl_Phe] [Isovaleric Acid-L-T-H-[Dpa]-P-[Lys(Ahx_Palm)]-N_Ethyl_Phe]	18.3
B10	169
Isovaleryl-LTH[Dip]PK([Ahx-Palmitoyl])-NHPr [Isovaleric Acid-L-T-H-[Dpa]-P-[Lys(Ahx_Palm)]-Propyl_Amine]	87.3
Isovaleryl-LTH[Dip]K([AEEA-AEEA-γGlu-C18 diacid])-Benzyl_Amine [Isovaleric Acid-L-T-H-[Dpa]-[Lys(1PEG2_1PEG2_IsoGlu_C18_Diacid)]-Benzyl_Amine]	> 3000
B11	394
B12	598
Isovaleryl-LTH[Dip]K([AEEA-AEEA-γGlu-C18 diacid])[N_Ethyl_Phe] [Isovaleric Acid-L-T-H-[Dpa]-[Lys(1PEG2_1PEG2 IsoGlu_C18_Diacid)]-N_Ethyl Phe]	> 3000
B13	1580
Isovaleryl-LTH[Dip]PK([Ahx-Palmitoyl])[N_Butyl_Phe] [Isovaleric Acid-L-T-H-[Dpa]-P-[Lys(Ahx_Palm)]-N_Butyl_Phe]	74
B14	470
Isovaleryl-LTH[Dip]K([AEEA-AEEA-γGlu-C18 diacid])[N_Butyl_Phe] [Isovaleric Acid-L-T-H-[Dpa]-[Lys(1PEG2_1PEG2_IsoGlu_C18_Diacid)]-N_Butyl Phe]	> 3000
B15	> 3000
B16	86.8
B17	482
B18	1690
B19	1270

From US20240066131A1 (Protagonist Therapeutics, Inc., priority 2020, published 2024)
